Data reported in publication PMC3115021, “Dynamics of Cdk1 Substrate Specificity during the Cell Cycle” (Molecular Cell, 2011).

B1: XBP1: purified yeast protein tested as Cdk1 substrate (protein, UniProt P40489 1-647, looked up)
Transcriptional repressor XBP1: MKYPAFSINSDTVHLTDNPLDDYQRLYLVSVLDRDSPPASFSAGLNIRKVNYKSSIAAQFTHPNFIISARDAGNGEEAAAQNVLNCFEYQFPNLQTIQSLVHEQTLLSQLASSATPHSALHLHDKNILMGKIILPSRSNKTPVSASPTKQEKKALSTASRENATSSLTKNQQFKLTKMDHNLINDKLINPNNCVIWSHDSGYVFMTGIWRLYQDVMKGLINLPRGDSVSTSQQQFFCKAEFEKILSFCFYNHSSFTSEESSSVLLSSSTSSPPKRRTSTGSTFLDANASSSSTSSTQANNYIDFHWNNIKPELRDLICQSYKDFLINELGPDQIDLPNLNPANFTKRIRGGYIKIQGTWLPMEISRLLCLRFCFPIRYFLVPIFGPDFPKDCESWYLAHQNVTFASSTTGAGAATAATAAANTSTNFTSTAVARPRQKPRPRPRQRSTSMSHSKAQKLVIEDALPSFDSFVENLGLSSNDKNFIKKNSKRQKSSTYTSQTSSPIGPRDPTVQILSNLASFYNTHGHRYSYPGNIYIPQQRYSLPPPNQLSSPQRQLNYTYDHIHPVPSQYQSPRHYNVPSSPIAPAPPTFPQPYGDDHYHFLKYASEVYKQQNQRPAHNTNTNMDTSFSPRANNSLNNFKFKTNSKQ
B2: WHI5: repressor of the G1-specific SBF transcription factor, tested as Cdk1 substrate (protein, UniProt Q12416 1-295, looked up)
G1-specific transcriptional …: MSLRTPKRSRTSDEQEQEQEQEQVQNPDTHVNNEHQQRPGPTTLLSTPVRLKNGFGTPSPPSPPGITKSITKSRRRPSTTSLQGIFMSPVNKRRVGITAHGRVYDHNDDGHESESEDDENEEENENQKKYDGHVSMPLLPPTTPKSRRSEVFLSPSPRLRSPPTAARRSTGERPIREISHTLRTRLNYALVKLQNGWTDKTLPELETELAPAVQTPPRRYHNRFPDSADAGTSAHTAFLQALGGHPPREEATAVETLMLLSSPTKKQQHRPVPATSAGEPTDETEPESDTEVETS
B3: SWI6: cell cycle-related transcription factor, tested as Cdk1 substrate (protein, UniProt P09959 1-803, looked up)
Regulatory protein SWI6: MALEEVVRYLGPHNEIPLTLTRDSETGHFLLKHFLPILQQYHDTGNINETNPDSFPTDEERNKLLAHYGIAVNTDDRGELWIELEKCLQLLNMLNLFGLFQDAFEFEEPETDQDEEDPSHSKLPENKTKSENSKDNISSKRINNLQDMSLDSDAHRELGSPLKKLKIDTSVIDAESDSTPNTARGKPNDDINKGPSGDNENNGTDDNDRTAGPIITFTHDLTSDFLSSPLKIMKALPSPVVNDNEQKMKLEAFLQRLLFPEIQEMPTSLNNDSSNRNSEGGSSNQQQQHVSFDSLLQEVNDAFPNTQLNLNIPVDEHGNTPLHWLTSIANLELVKHLVKHGSNRLYGDNMGESCLVKAVKSVNNYDSGTFEALLDYLYPCLILEDSMNRTILHHIIITSGMTGCSAAAKYYLDILMGWIVKKQNRPIQSGTNEKESKPNDKNGERKDSILENLDLKWIIANMLNAQDSNGDTCLNIAARLGNISIVDALLDYGADPFIANKSGLRPVDFGAGTSKLQNTNGGDENSKMVSKGDYDGQKNGKAKKIRSQLLKNPPETTSLINDVQNLLNSISKDYENETVQYNEKLEKLHKELNEQREELANSREQLANVKQLKDEYSLMQEQLTNLKAGIEEEEESFREESKKLGIIADESSGIDWDSSEYDADEPFKVEFLSDFLEDKLQKNYEGDISKLLEAESKEQIMEQIRNQLPAEKIQSMLPPTVLLKARINAYKRNDKHLTNVLDTISTKQSELENKFRRVLSLCLKIDENKVDNMLDGLLQAISSEDPQDIDTDEMQDFLKKHAS
B4: YHP1: purified yeast protein tested as Cdk1 substrate (protein, UniProt Q04116 1-353, looked up)
Homeobox protein YHP1: MESRNTVLPSLPNIITGTSNSPFQLHTLPNTNFPSDDQGDIRLPPLAASAHIVRPVVNIYKSPCDEERPKRKSPQAVDFLSQRVTTSMTPLSKPKKLSSHSPFTPTVRVCSKEQPPQSMHSYKKVNILTPLSAAKAVLTPTTRKEKKRSFAFITHSQETFPKKEPKIDNARLARRKRRRTSSYELGILQTAFDECPTPNKAKRIELSEQCNMSEKSVQIWFQNKRQAAKKHKNSGNTSHCKVHSNDSMSMISYSDAALEITSTPTSTKEAITAELLKTSPANTSSIFEDHHITPCKPGGQLKFHRKSVLVKRTLSNTGHSEIIKSPKGKENRLKFNAYERKPLGEVDLNSFKN
B5: CDC6: replication factor and pre-RC component, tested as Cdk1 substrate (protein, UniProt P09119 1-513, looked up)
Cell division control protein …: MSAIPITPTKRIRRNLFDDAPATPPRPLKRKKLQFTDVTPESSPEKLQFGSQSIFLRTKALLQKSSELVNLNSSDGALPARTAEYEQVMNFLAKAISEHRSDSLYITGPPGTGKTAQLDMIIRQKFQSLPLSLSTPRSKDVLRHTNPNLQNLSWFELPDGRLESVAVTSINCISLGEPSSIFQKIFDSFQDLNGPTLQIKNMQHLQKFLEPYHKKTTFVVVLDEMDRLLHANTSETQSVRTILELFLLAKLPTVSFVLIGMANSLDMKDRFLSRLNLDRGLLPQTIVFQPYTAEQMYEIVIQKMSSLPTIIFQPMAIKFAAKKCAGNTGDLRKLFDVLRGSIEIYELEKRFLLSPTRGSLNSAQVPLTPTTSPVKKSYPEPQGKIGLNYIAKVFSKFVNNNSTRTRIAKLNIQQKLILCTIIQSLKLNSDATIDESFDHYIKAITKTDTLAPLQRNEFLEICTILETCGLVSIKKTKCKGKTKRFVDKIDVDLDMREFYDEMTKISILKPFLH
B6: TOS4: putative transcription factor, tested as Cdk1 substrate (protein, UniProt Q06266 1-489, looked up)
Protein TOS4: MSSQFPSSPYRTVDPYSPPNYKQQPNCPSSNYEKAGKTASESIGNFGKGDYPTPFPSSSIGRVSSPVRSNKVDAIPSSPAFPGQLAETSPKFSSKLSSPSRHTRVINAELDPSKISTITVGRNSSQCDVALCKNKFISRVHASITYLPQTNEVKIHCFSMNGLIVTYRKQFDCYQLKDTMNNNNRAYRLVPRFSNEKCVKEIQDEGGFINFTLEEGDTVYMTYYKGIMLDFRQVLLRISLKEKNSSSEPLRFEKKAEFESESETKHMGSIRKHPLIFTDTSMDRPKKILKDSNKISIGSDSGVAERMLNHFLNSKSSPLSSVSSVDHEEQTLRQDSLSSDKNPMTMKKPKLNKRVLPSKPKKSVKENLDELSRRNIDVMHLQHILTNHLAFANVQQTPLFQLQQVNSQISELSRDELRSILSDAKCVGVIYRHGKDAAGKPLDEEYFYDLENDDDYERRNLVSSLKGGRTGLRSCRRTHKQYFWKKPAK

Experiments:
Experiment in all cases: Quantitative phosphorylation assay of T33-Sic1ΔC constructs and recombinant substrates
Type in all cases: biochemical
Conditions in all cases: Table S2; purified protein substrate; relative values, not divided by [S]
[1] = target: T1, Clb2hpm-Cdk1 (Saccharomyces cerevisiae, UniProt P00546)
T1 construct: made in house; host or cells: S. cerevisiae strain DOM0964 (gal-CLB2hpm-TAP, sic1 deleted); Cks1 from bacteria
Outline: (§1)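 Yeast cyclin-Cdk1 complexes (1–10 nM, TAP-purified) phosphorylated 6His-T33-Sic1ΔC (other S/T-P sites mutated to Ala-Ala) or recombinant substrates at 0.5–2 μM, below KM, with 32P-γ-ATP. Initial velocities (≤10% turnover) from two or more time points, SDS-PAGE stopped; relative kcat/KM from v0 ratios.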

[2] = target: T2, Clb3hpm-Cdk1 (Saccharomyces cerevisiae, UniProt P00546+P24870)
T2 construct: made in house; host or cells: S. cerevisiae strain MK0168 (gal-CLB3hpm-TAP, sic1 deleted); Cks1 from bacteria
Outline: as §1

[3] = target: T3, Clb5hpm-Cdk1 (Saccharomyces cerevisiae, UniProt P00546)
T3 construct: made in house; host or cells: S. cerevisiae strain DOM0963 (gal-CLB5hpm-TAP, sic1 deleted); Cks1 from bacteria
Outline: as §1

[4] = target: T4, Clb5-Cdk1 (Saccharomyces cerevisiae, UniProt P00546+P30283)
T4 construct: We purified the four cyclin-Cdk1 complexes from yeast; made in house; host or cells: S. cerevisiae strain DOM0076 (gal-CLB5-TAP, sic1 deleted); Cks1 from bacteria

[5] = target: T5, Clb2-Cdk1 (Saccharomyces cerevisiae, UniProt P00546+P24869)
T5 construct: We purified the four cyclin-Cdk1 complexes from yeast; made in house; host or cells: S. cerevisiae strain DOM0077 (gal-CLB2-TAP, sic1 deleted); Cks1 from bacteria

[6] = target: T6, Clb3-Cdk1 (Saccharomyces cerevisiae, UniProt P00546+P24870)
T6 construct: We purified the four cyclin-Cdk1 complexes from yeast; made in house; host or cells: S. cerevisiae strain DOM0957 (gal-CLB3-TAP, sic1 deleted); Cks1 from bacteria

[7] = target: T7, Cln2-Cdk1 (Saccharomyces cerevisiae, UniProt P00546+P20438)
T7 construct: We purified the four cyclin-Cdk1 complexes from yeast; made in house; host or cells: S. cerevisiae strain DMY305 (galactose-induced); Cks1 from bacteria
T7 sequence (P00546 2-298 limits assumed): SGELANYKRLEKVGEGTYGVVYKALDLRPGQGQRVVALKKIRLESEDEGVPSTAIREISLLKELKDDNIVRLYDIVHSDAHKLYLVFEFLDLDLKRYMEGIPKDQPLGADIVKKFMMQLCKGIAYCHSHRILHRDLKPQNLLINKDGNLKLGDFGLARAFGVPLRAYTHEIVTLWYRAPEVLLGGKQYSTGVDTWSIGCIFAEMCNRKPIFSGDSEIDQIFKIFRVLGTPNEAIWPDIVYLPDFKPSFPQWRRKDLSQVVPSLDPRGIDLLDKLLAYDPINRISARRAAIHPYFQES
T7 sequence (P20438 whole entry partner): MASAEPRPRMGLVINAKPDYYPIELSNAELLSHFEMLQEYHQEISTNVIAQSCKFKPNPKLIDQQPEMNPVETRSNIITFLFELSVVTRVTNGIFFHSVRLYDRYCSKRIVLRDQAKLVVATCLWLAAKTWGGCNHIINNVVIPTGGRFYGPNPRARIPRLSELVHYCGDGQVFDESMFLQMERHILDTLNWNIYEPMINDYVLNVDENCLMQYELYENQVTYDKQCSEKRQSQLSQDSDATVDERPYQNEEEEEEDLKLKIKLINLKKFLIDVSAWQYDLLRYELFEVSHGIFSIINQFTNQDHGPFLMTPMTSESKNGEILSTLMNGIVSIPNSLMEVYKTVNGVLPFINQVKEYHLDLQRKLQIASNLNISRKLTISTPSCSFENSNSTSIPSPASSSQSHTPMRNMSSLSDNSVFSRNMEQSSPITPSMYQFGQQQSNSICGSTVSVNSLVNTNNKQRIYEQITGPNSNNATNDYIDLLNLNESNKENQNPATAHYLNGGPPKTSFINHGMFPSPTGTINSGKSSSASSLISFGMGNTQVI
T7 sequence (P20486 whole entry partner): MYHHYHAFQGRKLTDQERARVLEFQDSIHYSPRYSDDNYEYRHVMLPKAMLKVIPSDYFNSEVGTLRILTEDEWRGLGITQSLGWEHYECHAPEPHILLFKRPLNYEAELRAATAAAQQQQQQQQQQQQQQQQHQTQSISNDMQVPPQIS

T3 sequence (P00546 2-298 limits assumed): as the sequence (P00546 2-298 limits assumed) above
T4 sequence (P00546 2-298 limits assumed): as above
T4 sequence (P30283 whole entry partner): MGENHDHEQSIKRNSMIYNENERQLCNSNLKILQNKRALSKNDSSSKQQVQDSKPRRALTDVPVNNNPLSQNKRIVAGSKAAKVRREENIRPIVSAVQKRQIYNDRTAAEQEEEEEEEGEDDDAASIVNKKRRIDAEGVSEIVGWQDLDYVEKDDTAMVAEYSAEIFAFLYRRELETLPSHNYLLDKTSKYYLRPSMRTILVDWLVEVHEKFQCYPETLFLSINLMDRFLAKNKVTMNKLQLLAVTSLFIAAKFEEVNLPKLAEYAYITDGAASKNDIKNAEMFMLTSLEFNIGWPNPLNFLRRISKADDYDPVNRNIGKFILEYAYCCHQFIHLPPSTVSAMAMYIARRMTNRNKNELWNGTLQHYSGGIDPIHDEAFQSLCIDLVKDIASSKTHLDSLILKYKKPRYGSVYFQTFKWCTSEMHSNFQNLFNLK
T4 sequence (P20486 whole entry partner): as the sequence (P20486 whole entry partner) above
T6 sequence (P00546 2-298 limits assumed): as the sequence (P00546 2-298 limits assumed) above
T6 sequence (P24870 whole entry partner): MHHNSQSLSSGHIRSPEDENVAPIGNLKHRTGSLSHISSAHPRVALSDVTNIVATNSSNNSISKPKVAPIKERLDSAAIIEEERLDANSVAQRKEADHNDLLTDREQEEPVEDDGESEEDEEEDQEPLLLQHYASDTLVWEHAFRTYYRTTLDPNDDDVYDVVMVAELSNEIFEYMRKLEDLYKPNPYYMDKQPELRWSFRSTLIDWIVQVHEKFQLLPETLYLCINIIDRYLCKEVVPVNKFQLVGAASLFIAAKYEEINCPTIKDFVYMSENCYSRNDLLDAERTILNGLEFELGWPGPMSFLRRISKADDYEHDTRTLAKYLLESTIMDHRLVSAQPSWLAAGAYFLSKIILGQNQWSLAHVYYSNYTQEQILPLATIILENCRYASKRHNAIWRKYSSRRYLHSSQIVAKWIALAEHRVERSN
T6 sequence (P20486 whole entry partner): as the sequence (P20486 whole entry partner) above
T1 sequence (P00546 2-298 limits assumed): as the sequence (P00546 2-298 limits assumed) above
T5 sequence (P00546 2-298 limits assumed): as above
T5 sequence (P24869 2-491 partner limits assumed): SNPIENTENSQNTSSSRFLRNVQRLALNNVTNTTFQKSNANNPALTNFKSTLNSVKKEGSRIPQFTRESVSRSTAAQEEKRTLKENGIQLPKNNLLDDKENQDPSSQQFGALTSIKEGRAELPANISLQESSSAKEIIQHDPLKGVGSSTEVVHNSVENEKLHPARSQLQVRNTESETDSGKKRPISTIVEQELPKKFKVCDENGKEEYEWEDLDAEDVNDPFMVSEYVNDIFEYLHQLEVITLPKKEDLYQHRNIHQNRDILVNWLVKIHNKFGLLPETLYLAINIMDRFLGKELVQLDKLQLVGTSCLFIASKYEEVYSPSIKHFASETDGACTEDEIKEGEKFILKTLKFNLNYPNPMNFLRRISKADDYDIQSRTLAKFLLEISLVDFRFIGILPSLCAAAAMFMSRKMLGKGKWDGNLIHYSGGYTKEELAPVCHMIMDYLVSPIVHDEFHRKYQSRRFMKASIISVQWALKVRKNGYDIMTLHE
T5 sequence (P20486 whole entry partner): as the sequence (P20486 whole entry partner) above

Molecule	kcat/KM, Clb2hpm [1]	kcat/KM, Clb3hpm [2]	kcat/KM, Clb5hpm [3]	kcat/KM, Clb5 [4]	kcat/KM, Clb2 [5]	kcat/KM, Clb3 [6]	kcat/KM, Cln2 [7]
B1	0.084 relative units	0.013 relative units	0.007 relative units	0.020 relative units	0.103 relative units	0.065 relative units	0.200 relative units
B2	0.027 relative units	0.006 relative units	0.001 relative units	0.016 relative units	0.046 relative units	0.033 relative units	0.283 relative units
B3	0.481 relative units	0.075 relative units	0.058 relative units	0.118 relative units	0.412 relative units	0.105 relative units	0.004 relative units
B4	0.046 relative units	0.009 relative units	0.002 relative units	0.020 relative units	0.385 relative units	0.066 relative units	0.524 relative units
B5	1.688 relative units	0.350 relative units	0.138 relative units	2.898 relative units	0.078 relative units	2.268 relative units	0.084 relative units
B6	2.136 relative units	2.397 relative units	0.593 relative units	0.502 relative units	2.373 relative units	8.484 relative units	0.708 relative units
